The term Kd denotes the constant that tells how readily two partners part at equilibrium. What is called koff is the first-order rate constant of dissociation. A word on the kon: it is a measure of how fast the partners come together.

B1: HC1 (SEQ ID NO: 123) + LC2 (SEQ ID NO: 127) (antibody, human IgG4 S228P, kappa, V domains shown)
VH: QVQLVQSGAEVKKPGASVKVSCKASGYAFTNYLIEWVRQAPGQGLEWMGVINPGSGATNYNQKFQGRVTMTADKSISTAYMELSRLRSDDTAVYFCARRVYFDYWGQGTLVTVSS
VL: EIVMTQSPATLSLSPGERATLSCRASQSISDYLHWYQQKPGQAPRLLIKYASQSISGIPARFSGSGSGSDFTLTISSLEPEDFAVYYCQNGHSFPLTFGQGTKLEIKR
notes: also called HC1 + LC2
B2: HC3 (SEQ ID NO: 125) + LC1 (SEQ ID NO: 126) (antibody, human IgG4 S228P, kappa, V domains shown)
VH: QVQLVQSGAEVKKPGASVKVSCKASGYAFTNYLIEWVRQAPGQGLEWMGVINPGSGATNYNQKFQGRVTMTADKSTSTVYMELSSLRSEDTAVYFCARRVYFDYWGQGTLVTVSS
VL: EIVLTQSPATLSLSPGERATLSCRASQSISDYLHWYQQKPGQAPRLLIKYASQSITGIPARFSGSGSGTDFTLTISSLEPEDFAVYYCQNGHSFPLTFGQGTKLEIKR
notes: also called HC3 + LC1
B3: HC1 (SEQ ID NO: 123) + LC1 (SEQ ID NO: 126) (antibody, human IgG4 S228P, kappa, V domains shown)
VH: QVQLVQSGAEVKKPGASVKVSCKASGYAFTNYLIEWVRQAPGQGLEWMGVINPGSGATNYNQKFQGRVTMTADKSISTAYMELSRLRSDDTAVYFCARRVYFDYWGQGTLVTVSS
VL: EIVLTQSPATLSLSPGERATLSCRASQSISDYLHWYQQKPGQAPRLLIKYASQSITGIPARFSGSGSGTDFTLTISSLEPEDFAVYYCQNGHSFPLTFGQGTKLEIKR
notes: also called HC1 + LC1
B4: HC2 (SEQ ID NO: 124) + LC3 (SEQ ID NO: 128) (antibody, human IgG4 S228P, kappa, V domains shown)
VH: QVQLVQSGAEVKKPGASVKVSCKASGYAFTNYLIEWVRQAPGQGLEWIGVINPGSGATNYNQKFQGRVTLTADKSISTAYMELSRLRSDDTAVYFCARRVYFDYWGQGTLVTVSS
VL: DIVMTQSPATLSLSPGERATLSCRASQSISDYLHWYQQKPGQAPRLLIKYASQSISGIPARFSGSGSGTDFTLTISSLEPEDFAVYYCQNGHSFPLTFGQGTRLEIKR
notes: also called HC2 + LC3
B5: HC2 (SEQ ID NO: 124) + LC2 (SEQ ID NO: 127) (antibody, human IgG4 S228P, kappa, V domains shown)
VH: QVQLVQSGAEVKKPGASVKVSCKASGYAFTNYLIEWVRQAPGQGLEWIGVINPGSGATNYNQKFQGRVTLTADKSISTAYMELSRLRSDDTAVYFCARRVYFDYWGQGTLVTVSS
VL: EIVMTQSPATLSLSPGERATLSCRASQSISDYLHWYQQKPGQAPRLLIKYASQSISGIPARFSGSGSGSDFTLTISSLEPEDFAVYYCQNGHSFPLTFGQGTKLEIKR
notes: also called HC2 + LC2
B6: HC3 (SEQ ID NO: 125) + LC2 (SEQ ID NO: 127) (antibody, human IgG4 S228P, kappa, V domains shown)
VH: QVQLVQSGAEVKKPGASVKVSCKASGYAFTNYLIEWVRQAPGQGLEWMGVINPGSGATNYNQKFQGRVTMTADKSTSTVYMELSSLRSEDTAVYFCARRVYFDYWGQGTLVTVSS
VL: EIVMTQSPATLSLSPGERATLSCRASQSISDYLHWYQQKPGQAPRLLIKYASQSISGIPARFSGSGSGSDFTLTISSLEPEDFAVYYCQNGHSFPLTFGQGTKLEIKR
notes: also called HC3 + LC2
B7: HC1 (SEQ ID NO: 123) + LC3 (SEQ ID NO: 128) (antibody, human IgG4 S228P, kappa, V domains shown)
VH: QVQLVQSGAEVKKPGASVKVSCKASGYAFTNYLIEWVRQAPGQGLEWMGVINPGSGATNYNQKFQGRVTMTADKSISTAYMELSRLRSDDTAVYFCARRVYFDYWGQGTLVTVSS
VL: DIVMTQSPATLSLSPGERATLSCRASQSISDYLHWYQQKPGQAPRLLIKYASQSISGIPARFSGSGSGTDFTLTISSLEPEDFAVYYCQNGHSFPLTFGQGTRLEIKR
notes: also called HC1 + LC3
B8: HC2 (SEQ ID NO: 124) + LC1 (SEQ ID NO: 126) (antibody, human IgG4 S228P, kappa, V domains shown)
VH: QVQLVQSGAEVKKPGASVKVSCKASGYAFTNYLIEWVRQAPGQGLEWIGVINPGSGATNYNQKFQGRVTLTADKSISTAYMELSRLRSDDTAVYFCARRVYFDYWGQGTLVTVSS
VL: EIVLTQSPATLSLSPGERATLSCRASQSISDYLHWYQQKPGQAPRLLIKYASQSITGIPARFSGSGSGTDFTLTISSLEPEDFAVYYCQNGHSFPLTFGQGTKLEIKR
notes: also called HC2 + LC1
B9: HC3 (SEQ ID NO: 125) + LC3 (SEQ ID NO: 128) (antibody, human IgG4 S228P, kappa, V domains shown)
VH: QVQLVQSGAEVKKPGASVKVSCKASGYAFTNYLIEWVRQAPGQGLEWMGVINPGSGATNYNQKFQGRVTMTADKSTSTVYMELSSLRSEDTAVYFCARRVYFDYWGQGTLVTVSS
VL: DIVMTQSPATLSLSPGERATLSCRASQSISDYLHWYQQKPGQAPRLLIKYASQSISGIPARFSGSGSGTDFTLTISSLEPEDFAVYYCQNGHSFPLTFGQGTRLEIKR
notes: also called HC3 + LC3

T1 sequence (Q08722 19-139 limits assumed): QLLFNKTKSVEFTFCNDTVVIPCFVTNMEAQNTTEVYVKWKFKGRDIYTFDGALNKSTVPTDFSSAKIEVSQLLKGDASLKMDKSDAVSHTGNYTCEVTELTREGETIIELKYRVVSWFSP

This assay concerns the target T1, CD47 (UniProt Q08722 19-139, limits assumed).
T1 construct: also called Antigen; Cluster of differentiation 47
Description: Octet HTX BLI, antibody on anti-human Fc biosensors, antigen in solution, 1:1 fit. How it is done:
The affinity of 9 humanized antibody combinations and the chimeric parental antibody was evaluated by Octet. Multi-concentration kinetic experiments were performed on the Octet HTX system (ForteBio). Anti-human Fc biosensors (ForteBio) were hydrated in sample diluent (0.1% BSA in PBS and 0.02% Tween 20) and preconditioned in pH 1.9 Glycine. Antigen was diluted by a 7 point, 3 fold serial dilution starting at 500 nM with sample diluent. Antibodies were diluted to 2 ug/mL with sample diluent and then immobilized onto anti-human Fc biosensors. After baselines were established for 30 seconds in sample diluent, the biosensors were moved to wells containing serially diluted antigen to measure the association and dissociation. […] The binding affinities were characterized by fitting the kinetic sensorgrams to a monovalent binding model (1:1 binding).
(In general: In BLI a coated tip is dipped into the sample, and binding shifts an interference pattern.)
As to B1, the dissociation constant (Kd) amounted to 26 nM, the koff worked out at 0.0041 s⁻¹ and the kon came to 160000 M⁻¹ s⁻¹.

For the molecule B2, the dissociation constant Kd came out at 12 nM, the koff turned out to be 0.0025 s⁻¹ and the kon amounted to 220000 M⁻¹ s⁻¹.

In the case of B3, the Kd stood at 15 nM, the koff was 0.0025 s⁻¹ and the kon stood at 160000 M⁻¹ s⁻¹.

As to B4, the dissociation constant (Kd) stood at 23 nM, the off-rate (koff) worked out at 0.0034 s⁻¹ and the kon is 150000 M⁻¹ s⁻¹.

As to B5, the equilibrium dissociation constant (Kd) came to 18 nM, the koff came out at 0.003 s⁻¹ and the kon stood at 170000 M⁻¹ s⁻¹.

As for B6, the Kd stood at 29 nM, the koff is 0.0036 s⁻¹ and the kon worked out at 120000 M⁻¹ s⁻¹.

For B7, the dissociation constant Kd came to 15 nM, the koff was found to be 0.0027 s⁻¹ and the association rate constant (kon) was 180000 M⁻¹ s⁻¹.

For B8, the Kd was 22 nM, the off-rate (koff) stood at 0.0035 s⁻¹ and the on-rate constant (kon) was found to be 160000 M⁻¹ s⁻¹.

In the case of B9, the Kd is 15 nM, the off-rate constant (koff) was found to be 0.0025 s⁻¹ and the on-rate (kon) was determined as 170000 M⁻¹ s⁻¹.

The record behind these values is patent US20220144943A1 (INTEGRITY BIOVENTURES, published 2022).
